Consider 2 molecules from publication PMC6778125, “Cryo-EM structure of the bacterial Ton motor subcomplex ExbB–ExbD provides information on structure and stoichiometry” (Communications Biology, 2019).

The term stoichiometry N denotes the number of molecules, sites or subunits per partner or assembly.

Data set [1] concerns the target ExbD (UniProt P0ABV2). Description: cryo-EM structure; single particle cryo-EM of the co-expressed, purified full-length ExbB-ExbD complex in lipid nanodiscs (MSP1E3D1, E. coli polar lipid extract); Tris 25 mM pH7.4 NaCl 200 mM; C1 symmetry, 3.3 Å.
Data set [2] deals with the molecule itself. The description is as above.

In the case of “ExbD (from UniProt P0ABV2 1-141) (natural protein)”, in data set [1], the stoichiometry N stood at 2.

B1: ExbB (natural protein, UniProt P0ABU7 1-244, looked up)
chain: MGNNLMQTDLSVWGMYQHADIVVKCVMIGLILASVVTWAIFFSKSVEFFNQKRRLKREQQLLAEARSLNQANDIAADFGSKSLSLHLLNEAQNELELSEGSDDNEGIKERTSFRLERRVAAVGRQMGRGNGYLATIGAISPFVGLFGTVWGIMNSFIGIAQTQTTNLAVVAPGIAEALLATAIGLVAAIPAVVIYNVFARQIGGFKAMLGDVAAQVLLLQSRDLDLEASAAAHPVRVAQKLRAG
notes: ExbB, inner membrane subunit of the Ton complex, 244 residues, three TM helices; native exbB, no tag; also called native ExbB; ExbB pentamer; source: reconstituted in lipid nanodiscs (MSP1E3D1, E. coli polar lipid extract)
With B1, the “stoichiometry N” value in data set [2] worked out at 5.
